This note sets out measurements from PMC3670040, “Structure of Lipid Kinase p110β/p85β Elucidates an Unusual SH2-Domain-Mediated Inhibitory Mechanism” (Molecular Cell, 2011).

For this test, the system named is p110β. The experiment in a line: Mass spectrometry assay of PIP3 production in vitro, brain lipids. The settings on record: 10 nM protein, 100 μM ATP, 1 mg/ml lipid, 60 min; Figure S3A. It counts as biochemical, mouse. On the procedure:
Figure S3, Related to Figures 1 and 2. Lipid Kinase Assays for p110β/p85 Constructs
(A) Lipid kinase activity of the p110β/p85β-nic, p110β/p85β-ni and p110β/p85β-ic, p110β C-terminal truncation/p85β-nic (ΔCter) and kinase dead (D913N) constructs as determined by mass spectroscopy. Error bars in panel A and other panels indicate SEM of four replicates.
(1 picture or pasted object on this page, not shown here)
Vesicles were "brain lipids" as in Figure S2. The protein concentration was 10 nM with 100 μM ATP and 1 mg/ml lipid. Reactions were carried out for 60 min. The bars show the integrated areas for the stearoyl-arachidonyl PtdIns(3,4,5)P3 peak.
(B) ATPase activity (no lipid substrate) of the wild-type and kinase dead p110β/p85β-nic construct in the absence and presence of 10 μM PDGF bis-phosphopeptide. Protein concentration was 75 nM with 100 μM ATP. Shaded bars represent activity for reactions with 5 μM added PI3K inhibitor GDC0941.
(C) Lipid kinase activity of a p110β/p85-icSH2 complex in which p110β Kα7/Kα8 elbow (966-KTGN) was replaced by the elbow of p110α (968-AQECTK). […]
The PIP3 lipids produced in PI3K in vitro assays as described above were also measured by a mass-spectrometry based assay (Clark et al.). […]

B1: p110β-ΔCter/nic: truncation mutant lacking 17 residues from the p110β C terminus; human ΔCter (1-1053) used in cells (protein, UniProt P42338 1-1053, looked up, fragment)
chain: MCFSFIMPPAMADILDIWAVDSQIASDGSIPVDFLLPTGIYIQLEVPREATISYIKQMLWKQVHNYPMFNLLMDIDSYMFACVNQTAVYEELEDETRRLCDVRPFLPVLKLVTRSCDPGEKLDSKIGVLIGKGLHEFDSLKDPEVNEFRRKMRKFSEEKILSLVGLSWMDWLKQTYPPEHEPSIPENLEDKLYGGKLIVAVHFENCQDVFSFQVSPNMNPIKVNELAIQKRLTIHGKEDEVSPYDYVLQVSGRVEYVFGDHPLIQFQYIRNCVMNRALPHFILVECCKIKKMYEQEMIAIEAAINRNSSNLPLPLPPKKTRIISHVWENNNPFQIVLVKGNKLNTEETVKVHVRAGLFHGTELLCKTIVSSEVSGKNDHIWNEPLEFDINICDLPRMARLCFAVYAVLDKVKTKKSTKTINPSKYQTIRKAGKVHYPVAWVNTMVFDFKGQLRTGDIILHSWSSFPDELEEMLNPMGTVQTNPYTENATALHVKFPENKKQPYYYPPFDKIIEKAAEIASSDSANVSSRGGKKFLPVLKEILDRDPLSQLCENEMDLIWTLRQDCREIFPQSLPKLLLSIKWNKLEDVAQLQALLQIWPKLPPREALELLDFNYPDQYVREYAVGCLRQMSDEELSQYLLQLVQVLKYEPFLDCALSRFLLERALGNRRIGQFLFWHLRSEVHIPAVSVQFGVILEAYCRGSVGHMKVLSKQVEALNKLKTLNSLIKLNAVKLNRAKGKEAMHTCLKQSAYREALSDLQSPLNPCVILSELYVEKCKYMDSKMKPLWLVYNNKVFGEDSVGVIFKNGDDLRQDMLTLQMLRLMDLLWKEAGLDLRMLPYGCLATGDRSGLIEVVSTSETIADIQLNSSNVAAAAAFNKDALLNWLKEYNSGDDLDRAIEEFTLSCAGYCVASYVLGIGDRHSDNIMVKKTGQLFHIDFGHILGNFKSKFGIKRERVPFILTYDFIHVIQQGKTGNTEKFGRFRQCCEDAYLILRRHGNLFITLFALMLTAGLPELTSVKDIQYLKDSLALGKSEEEALKQFKQKFDEALRESW
With B1, the “activity with brain lipids” value was “no measurable activity”.
